A short description of the data set: in vitro. The format is in vitro ADME. The conditions noted are these: human, plasma.

For orientation: half-life means the time in which the quantity being followed falls by half. Low values mean fast loss, high ones slow loss. In the case of `[N-]=[N+]=NC(CCCCNC(=O)[C@H](CCC(=O)O)NC(=O)C1=C[C@H](O)[C@@H](NC(=O)[C@H](CCC(=O)O)NC(=O)C2=C[C@H](O)[C@@H](NC(=O)[C@H](CCC(=O)O)NC(=O)C3=C[C@H](O)[C@@H](NC(=O)CN4CCN(CC(=O)O)CCN(CC(=O)O)CCN(CC(=O)O)CC4)[C@H]([C@H](O)[C@H](O)CO)O3)[C@H]([C@H](O)[C@H](O)CO)O2)[C@H]([C@H](O)[C@H](O)CO)O1)C(N)=O` (some centres unmarked) [compound 10], the half-life was 16.2 days. On to `[N-]=[N+]=NC(CCCCNC(=O)C1=C[C@H](O)[C@@H](NC(=O)[C@@H](CCC(=O)O)NC(=O)C2=C[C@H](O)[C@@H](NC(=O)[C@@H](CCC(=O)O)NC(=O)C3=C[C@H](O)[C@@H](NC(=O)[C@@H](CCC(=O)O)NC(=O)CN4CCN(CC(=O)O)CCN(CC(=O)O)CCN(CC(=O)O)CC4)[C@H]([C@H](O)[C@H](O)CO)O3)[C@H]([C@H](O)[C@H](O)CO)O2)[C@H]([C@H](O)[C@H](O)CO)O1)C(N)=O` (some centres unmarked) [compound 7], for which the half-life is 4.08 days.

(Values after paper PMC4504198 (Chemical biology & drug design, 2010).)
